According to US20240132603A1 (HARBOUR BIOMED US, published 2024):
Where two headings read alike, the source gives them in different places.

How the values were obtained:
cynomolgus monkey CCR8 [1] = target: T1, cynomolgus monkey CCR8 (cynomolgus monkey, UniProt G7NYJ2 1-355); experiment: FACS, CHO-K1-CynoCCR8 cells
T1 construct: whole, on cells; also called CynoCCR8
Method: (§1) Cells overexpressing cynomolgus monkey CCR8, CHO-K1-CynoCCR8, were digested with pancreatin, counted and resuspended to a cell density of 1E6 cells/mL. The cell suspension was added to a 96-well V-bottom plate at 100 μL/well and centrifuged at 300 g for 5 min, and the supernatant was discarded. The anti-CCR8 antibodies provided herein was used as a primary antibody and diluted in a 5-fold gradient with an FACS buffer (DPBS containing 2% FBS) from 200 nM. The diluted primary antibody was added at 100 μL/well to resuspend the cells, and the mixture was incubated at 4° C. for 1 h. The plate was washed twice with DPBS and centrifuged at 300×g for 5 min, and the supernatant was discarded. The secondary antibody diluted in a 1:1000 ratio with an FACS buffer was added at 100 μL/well to suspend the cells, and the mixture was incubated at 4° C. for 40 min. The plate was washed twice with DPBS and centrifuged at 300×g for 5 min, and the supernatant was discarded. DPBS was added at 200 μL/well to suspend the cells, and the mixture was loaded on an FACS machine for analysis.

human CCR8 [2] = target: T2, human CCR8 (human, UniProt P51685 1-355); experiment: FACS, CHO-K1-hCCR8 cells
T2 construct: whole, on cells; construct used for the overexpressing cell lines is not described; also called hCCR8
T2 sequence (P51685 whole entry): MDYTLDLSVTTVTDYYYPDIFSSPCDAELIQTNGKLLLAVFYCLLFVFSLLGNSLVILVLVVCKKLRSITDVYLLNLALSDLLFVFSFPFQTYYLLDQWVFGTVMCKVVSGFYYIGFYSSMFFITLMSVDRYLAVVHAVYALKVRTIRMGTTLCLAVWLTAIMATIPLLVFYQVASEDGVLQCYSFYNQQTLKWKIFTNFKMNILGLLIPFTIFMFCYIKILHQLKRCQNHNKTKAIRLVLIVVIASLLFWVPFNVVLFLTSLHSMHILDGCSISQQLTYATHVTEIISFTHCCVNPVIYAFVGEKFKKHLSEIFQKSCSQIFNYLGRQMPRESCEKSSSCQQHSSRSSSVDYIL
Method: as §1, with “human CCR8” for “cynomolgus monkey CCR8, CHO-K1-CynoCCR8,”

human CCR8 [3] = target: T2, human CCR8; experiment: FACS, HEK293-hCCR8 cells
Method: as §1, with “human CCR8” for “cynomolgus monkey CCR8, CHO-K1-CynoCCR8,”

human CCR8 [4] = target: T2, human CCR8; experiment: FACS, Baf3-hCCR8 cells
Method: as §1, with “human CCR8” for “cynomolgus monkey CCR8, CHO-K1-CynoCCR8,”

human CCR8 [5] = target: T2, human CCR8; experiment: FACS, CHO-K1-hCCR8 cells; remark: listed apart in the source
Method: as §1, with “human CCR8” for “cynomolgus monkey CCR8, CHO-K1-CynoCCR8,”

cynomolgus monkey CCR8 [6] = target: T1, cynomolgus monkey CCR8; experiment: FACS, CHO-K1-CynoCCR8 cells; remark: listed apart in the source
Method: as §1

T1 sequence (G7NYJ2 entry or part of it): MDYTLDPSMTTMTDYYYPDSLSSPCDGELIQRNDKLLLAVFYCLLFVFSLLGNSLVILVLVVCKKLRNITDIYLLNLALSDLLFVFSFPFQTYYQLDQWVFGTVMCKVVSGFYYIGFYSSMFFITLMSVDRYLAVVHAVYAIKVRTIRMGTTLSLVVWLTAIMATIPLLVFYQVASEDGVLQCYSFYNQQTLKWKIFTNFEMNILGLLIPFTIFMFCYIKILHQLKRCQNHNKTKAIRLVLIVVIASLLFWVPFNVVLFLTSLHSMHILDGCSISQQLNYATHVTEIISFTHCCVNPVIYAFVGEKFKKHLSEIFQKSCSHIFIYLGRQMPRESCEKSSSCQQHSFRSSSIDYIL

Binder	EC50 (cynomolgus monkey CCR8 [1])	EC50 (human CCR8 [2])	EC50 (human CCR8 [3])	EC50 (human CCR8 [4])	EC50 (human CCR8 [5])	EC50 (cynomolgus monkey CCR8 [6])
PR005565AF (antibody, human IgG1, kappa, afucosylated (AF) Fc glycan, produced with 2-fluoro peracetylated fucose, also called PR005565F) heavy: not shown light: DIVMTQSPLSLPVTLGQPASISCRSSKSLLHSNAKIYLYWFQQRPGQSPRLLIYRMSNLASGVPDRFSGSGSGTDFTLKISRVEAEDVGVYYCMQHLEYPLTFGQGTKLEIKRTVAAPSVFIFPPSDEQLKSGTASVVCLLNNFYPREAKVQWKVDNALQSGNSQESVTEQDSKDSTYSLSSTLTLSKADYEKHKVYACEVTHQGLSSPVTKSFNRGEC	0.62 nM	0.38 nM	–	–	–	–
PR006157 (antibody, human IgG1, kappa, V domains shown) VH: EVQLVESGGGLVKPGGSLRLSCAASGFTFSTYAMNWVRQAPGKGLEWVGRIRSKSNYYATYYADSVKDRFTISRDDSKSTLYLQMNSLKTEDTAVYYCVRGKEIGNYYAMDFWGQGTTVTVSS VL: DIVMTQSPLSLPVTLGQPASISCRSSKSLLHSNAKIYLYWFQQRPGQSPRLLIYRMSNLASGVPDRFSGSGSGTDFTLKISRVEAEDVGVYYCMQHLEYPLTFGQGTKLEIKR	0.42 nM	0.73 nM	–	–	–	–
PR006156 (antibody, human IgG1, kappa, V domains shown) VH: EVQLVESGGGLVKPGGSLRLSCAASGFTFSTYAMNWVRQAPGKGLEWVGRIRSKSNNYATYYADSVKDRFTISRDDSKSTLYLQMNSLKTEDTAVYYCVRGKEIGNYYAMDFWGQGTTVTVSS VL: DIVMTQSPLSLPVTLGQPASISCRSSKSLLHSNAKIYLYWFQQRPGQSPRLLIYRMSNLASGVPDRFSGSGSGTDFTLKISRVEAEDVGVYYCMQHLEYPLTFGQGTKLEIKR	0.3 nM	0.38 nM	–	–	–	–
PR006154 (antibody, human IgG1, kappa, V domains shown) VH: EVQLVESGGGLVKPGGSLRLSCAASGFTFSTYAMNWVRQAPGKGLEWVGRIRSKSNNYATYYADSVKDRFTISRDDSKSTLYLQMNSLKTEDTAVYYCVRGKEHGNYYAMDFWGQGTTVTVSS VL: DIVMTQSPLSLPVTLGQPASISCRSSKSLLHSNAKIYLYWFQQRPGQSPRLLIYRMSNLASGVPDRFSGSGSGTDFTLKISRVEAEDVGVYYCMQHLEYPLTFGQGTKLEIKR	0.31 nM	0.38 nM	–	–	–	–
PR006161 (antibody, human IgG1, kappa, V domains shown) VH: EVQLVESGGGLVKPGGSLRLSCAASGFTFSTYAMNWVRQAPGKGLEWVGRIRSKSNYYATYYADSVKDRFTISRDDSKSTLYLQMNSLKTEDTAVYYCVRGKEHGKYYAMDFWGQGTTVTVSS VL: DIVMTQSPLSLPVTLGQPASISCRSSKSLLHSNAKIYLYWFQQRPGQSPRLLIYRMSNLASGVPDRFSGSGSGTDFTLKISRVEAEDVGVYYCMQHLEYPLTFGQGTKLEIKR	0.43 nM	0.38 nM	–	–	–	–
PR004120 (antibody, human IgG1, kappa, V domains shown, chimeric, human IgG1 constant region) VH: EVQLVESGGGLVQPKGSLKLSCAASGFTFNTNAMNWVRQAPGKGLEWVARIRSKMNNYATYYADSVKDRFTISRDDSQNMLYLQMNNLKTEDTAMYYCVRGKENGNYYAMDFWGQGTSVTVSA VL: DIVMTQAATSVLVTPGESVSISCRSSKSLLYSNGNTYLYWFLQRPGQSPQLLIYRMSNLASGVPDRFSGSGSGTAFTLRISRVEAEDVGVYYCMQHLEYPFTFGGGTKLEIKR	–	0.54 nM	1.1 nM	0.24 nM	–	–
PR004343 (antibody, human IgG1, kappa, V domains shown, light-chain semi-humanized variant of PR004128, IgG1 with DE mutation) VH: EVQLVESGGGLVQPKGSLKLSCAASGFTFNTYAMNWVRQAPGKGLEWVARIRSKSNNYATYYADSVKDRFTISRDDSQSMLYLQMNNLKTEDTAMYYCVRGKENGNYYAMDFWGQGTSVTVSA VL: DIVMTQSPLSLPVTLGQPASISCRSSKSLLHSNGKIYLYWFQQRPGQSPRLLIYRMSNLASGVPDRFSGSGSGTDFTLKISRVEAEDVGVYYCMQHLEYPLTFGQGTKLEIKR	–	–	–	–	1.08 nM	6.38 nM
PR004345 (antibody, human IgG1, kappa, V domains shown, light-chain semi-humanized variant of PR004128, IgG1 with DE mutation) VH: EVQLVESGGGLVQPKGSLKLSCAASGFTFNTYAMNWVRQAPGKGLEWVARIRSKSNNYATYYADSVKDRFTISRDDSQSMLYLQMNNLKTEDTAMYYCVRGKENGNYYAMDFWGQGTSVTVSA VL: DIVMTQSPLSLPVTLGQPASISCRSNKSLLHSNGNTYLYWFQQRPGQSPRLLIYRMSNLASGVPDRFSGSGSGTDFTLKISRVEAEDVGVYYCMQHLEYPLTFGQGTKLEIKR	–	–	–	–	1.12 nM	5.96 nM
PR004335 (antibody, human IgG1, kappa, V domains shown, heavy-chain semi-humanized variant of PR004128, IgG1 with DE mutation) VH: EVQLVESGGGLVQPGGSLRLSCAASGFTFNTYAMNWVRQAPGKGLEWVSRIRSKSNNYATYYADSVKDRFTISRDDSKSTLYLQMNSLRAEDTAVYYCVRGKENGNYYAMDYWGQGTTVTVSS VL: DIVMTQAAPSVPVTPGESVSISCRSSKSLLHSNGKIYLYWFLQRPGQSPQLLIYRMSNLASGVPDRFSGSGSGTAFTLRISRVEAEDVGVYYCMQHLEYPLTFGAGTKLEIKR	–	–	–	–	0.97 nM	3.52 nM
PR004334 (antibody, human IgG1, kappa, V domains shown, heavy-chain semi-humanized variant of PR004128, IgG1 with DE mutation) VH: EVQLVESGGGLVQPGGSLRLSCAASGFTFNTNAMNWVRQAPGKGLEWVSRIRSKSNNYATYYADSVKDRFTISRDDSKSTLYLQMNSLRAEDTAVYYCVRGKENGNYYAMDFWGQGTTVTVSS VL: DIVMTQAAPSVPVTPGESVSISCRSSKSLLHSNGKIYLYWFLQRPGQSPQLLIYRMSNLASGVPDRFSGSGSGTAFTLRISRVEAEDVGVYYCMQHLEYPLTFGAGTKLEIKR	–	–	–	–	1.33 nM	7.5 nM
PR004344 (antibody, human IgG1, kappa, V domains shown, light-chain semi-humanized variant of PR004128, IgG1 with DE mutation) VH: EVQLVESGGGLVQPKGSLKLSCAASGFTFNTYAMNWVRQAPGKGLEWVARIRSKSNNYATYYADSVKDRFTISRDDSQSMLYLQMNNLKTEDTAMYYCVRGKENGNYYAMDFWGQGTSVTVSA VL: DIVMTQSPLSLPVTLGQPASISCRSSKSLLHSNGNTYLYWFQQRPGQSPRLLIYRMSNLASGVPDRFSGSGSGTDFTLKISRVEAEDVGVYYCMQHLEYPLTFGQGTKLEIKR	–	–	–	–	1 nM	3.51 nM
PR004123 (antibody, human IgG1, kappa, V domains shown, chimeric, human IgG1 constant region) VH: EVQLVESGGGLVQPKGSLKLSCAASEFTFNTYAMNWVRQAPGKGLEWVARIRTKSNNFATYYADSVKDRFTISRDDSQSMLFLQMNNLKTEDTAMYYCVRGKENGNYYAMDFWGQGTSVTVSA VL: DIVMTQAAPSVPVTPGESVSISCRSSKSLLHSNGNTYLYWFLQRPGQSPQLLIYRMSNLASGVPDRFSGSGSGTAFTLRISRVEAEDVGVYYCMQHLEYPFTFGGGTKLELKR	–	0.46 nM	0.62 nM	0.2 nM	–	–
PR004127 (antibody, human IgG1, kappa, V domains shown, chimeric, human IgG1 constant region) VH: EVQLVETGGGLVQPKGSLKLSCAASGFTFNTNAMNWVRQAPGKGLEWVARIRSKSNNYATYYADSVKDRFTISRDDSQNMLYLQMNNLKTEDTAMYYCVRGKENGNYYAMDFWGQGTSVTVSS VL: DIVMTQAATSVLVTPGESVSISCRSSKSLLYSNGNTYLYWFLQRPGQSPQLLIYRMSNLASGVPDRFSGSGSGTAFTLRISRVEAEDVGVYYCMQHLEYPFTFGGGTKLEMKR	–	0.56 nM	0.86 nM	0.26 nM	–	–
PR004126 (antibody, human IgG1, kappa, V domains shown, chimeric, human IgG1 constant region) VH: EVQLVESGGGLVQPKGSLKLSCAASGFTFSTNAMNWVRQAPGKGLEWVGRIRSKSNNYATYYADSVKDRFTISRDDSQSMLYLQMNNLKTEDTAMYYCVRGKENGNYYAMDFWGQGTSVTVSA VL: DIVITQAAPSVPVTPGESVSISCRSSKSLLHSNGNTYLYWFLQRPGQSPQLLIYRMSNLASGVPDRFSGSGSGTAFTLRISRVEAEDVGVYYCMQHLEYPFTFGAGTKLELKR	–	0.43 nM	0.58 nM	0.18 nM	–	–
